Values of other authors, collected in article PMC6163503.
pKd, pKi: −log10 of the molar value.

Experiments:
[1] = target: JAK2 catalytic domain (Homo sapiens) (UniProt O60674); experiment: SPR
[2] = target: Aminopeptidase N (Homo sapiens) (UniProt P15144)
Chain of UniProt P15144 (P15144 2-967): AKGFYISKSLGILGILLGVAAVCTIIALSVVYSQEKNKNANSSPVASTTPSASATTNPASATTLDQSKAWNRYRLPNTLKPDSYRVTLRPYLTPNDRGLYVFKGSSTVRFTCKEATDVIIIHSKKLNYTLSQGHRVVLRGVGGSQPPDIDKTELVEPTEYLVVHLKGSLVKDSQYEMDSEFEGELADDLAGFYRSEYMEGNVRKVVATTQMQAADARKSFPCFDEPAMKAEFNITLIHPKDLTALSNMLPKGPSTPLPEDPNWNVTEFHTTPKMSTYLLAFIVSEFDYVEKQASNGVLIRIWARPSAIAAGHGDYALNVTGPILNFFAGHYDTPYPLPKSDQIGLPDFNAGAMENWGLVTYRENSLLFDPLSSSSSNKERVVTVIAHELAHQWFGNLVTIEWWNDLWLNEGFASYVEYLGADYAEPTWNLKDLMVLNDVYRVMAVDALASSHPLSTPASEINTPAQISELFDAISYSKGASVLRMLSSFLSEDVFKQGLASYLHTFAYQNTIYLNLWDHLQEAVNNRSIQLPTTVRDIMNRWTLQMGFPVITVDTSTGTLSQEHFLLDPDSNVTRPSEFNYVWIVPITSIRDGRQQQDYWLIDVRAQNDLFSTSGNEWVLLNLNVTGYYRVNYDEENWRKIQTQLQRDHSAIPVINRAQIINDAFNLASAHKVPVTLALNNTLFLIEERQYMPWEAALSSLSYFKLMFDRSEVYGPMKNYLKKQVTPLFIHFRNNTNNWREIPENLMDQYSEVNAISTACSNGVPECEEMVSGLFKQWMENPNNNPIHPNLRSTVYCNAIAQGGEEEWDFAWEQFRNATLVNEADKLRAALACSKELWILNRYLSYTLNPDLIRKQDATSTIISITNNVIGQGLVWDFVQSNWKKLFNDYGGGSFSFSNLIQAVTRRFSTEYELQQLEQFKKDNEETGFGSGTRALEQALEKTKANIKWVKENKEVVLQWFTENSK

Chain of UniProt O60674 (O60674 849-1124): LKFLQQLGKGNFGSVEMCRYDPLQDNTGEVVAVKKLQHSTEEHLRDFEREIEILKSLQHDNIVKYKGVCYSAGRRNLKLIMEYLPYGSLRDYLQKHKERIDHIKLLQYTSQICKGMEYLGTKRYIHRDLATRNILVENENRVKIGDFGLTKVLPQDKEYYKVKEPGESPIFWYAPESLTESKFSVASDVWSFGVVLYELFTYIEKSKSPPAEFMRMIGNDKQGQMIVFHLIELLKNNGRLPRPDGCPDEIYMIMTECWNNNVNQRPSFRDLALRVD

Row | pKd [1] | pKi [2] | Substance
1 | < 3.00 | – | SOCS3 ESS peptide ESS (from UniProt O14543)
2 | 5.69 | – | SOCS3 KIR peptide KIR (from UniProt O14543)
3 | 5.73 | – | SOCS3 KIRESS peptide KIRESS (from UniProt O14543)
4 | – | 4.61 | cyc-LHSPW
